This test deals with CTNNBL1^Q238A (human) (UniProt Q8WYA6). Nature of the test: SEC; Superdex 200 10/300, 500 μl of 2 mg/ml protein, 0.5 ml/min, 40 mM Tris-HCl pH 8.0, 150 mM NaCl; molecular weight from calibration standards.

As for “CTNNBL1^Q238A (from UniProt Q8WYA6 77-563) (domain or fragment)”, the stoichiometry N was 2.

Source of the values: PMC4585563.
